According to patent US20160272683A1 (Novo Nordisk, published 2016):
Numbered stars: 1 amine (or outer) side, 2 acyl side, 3 side chain; on linkers, the order of the positions; unused ones are H or OH. * marks the point of attachment. C20 diacid = O=C(O)CCCCCCCCCCCCCCCCCCC(=O)*; C18 diacid = O=C(O)CCCCCCCCCCCCCCCCC(=O)*; γGlu = O=C(O)[C@H](CCC(=O)[*:2])N[*:1]

T1: human calcitonin receptor on BHK570/CRE-luc cells (human, UniProt P30988 25-474)
T1 sequence (looked up): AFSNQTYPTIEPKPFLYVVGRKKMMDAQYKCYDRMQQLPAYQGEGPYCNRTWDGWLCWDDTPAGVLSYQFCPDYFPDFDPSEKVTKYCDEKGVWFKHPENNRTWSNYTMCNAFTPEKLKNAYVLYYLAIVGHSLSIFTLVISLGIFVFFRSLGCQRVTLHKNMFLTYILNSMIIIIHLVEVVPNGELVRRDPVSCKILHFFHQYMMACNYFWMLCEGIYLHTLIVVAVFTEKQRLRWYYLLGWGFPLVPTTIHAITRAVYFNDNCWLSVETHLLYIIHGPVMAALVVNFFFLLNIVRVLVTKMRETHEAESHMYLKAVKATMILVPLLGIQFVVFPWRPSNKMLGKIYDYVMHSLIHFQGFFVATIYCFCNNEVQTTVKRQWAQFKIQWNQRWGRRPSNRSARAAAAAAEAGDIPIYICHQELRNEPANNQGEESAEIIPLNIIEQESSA

T2: human amylin 3(a) receptor (human calcitonin receptor co-expressed with RAMP-3) on BHK570/CRE-luc cells (human, UniProt P30988 25-474; O60896 24-148)
T2 sequence (looked up) 1: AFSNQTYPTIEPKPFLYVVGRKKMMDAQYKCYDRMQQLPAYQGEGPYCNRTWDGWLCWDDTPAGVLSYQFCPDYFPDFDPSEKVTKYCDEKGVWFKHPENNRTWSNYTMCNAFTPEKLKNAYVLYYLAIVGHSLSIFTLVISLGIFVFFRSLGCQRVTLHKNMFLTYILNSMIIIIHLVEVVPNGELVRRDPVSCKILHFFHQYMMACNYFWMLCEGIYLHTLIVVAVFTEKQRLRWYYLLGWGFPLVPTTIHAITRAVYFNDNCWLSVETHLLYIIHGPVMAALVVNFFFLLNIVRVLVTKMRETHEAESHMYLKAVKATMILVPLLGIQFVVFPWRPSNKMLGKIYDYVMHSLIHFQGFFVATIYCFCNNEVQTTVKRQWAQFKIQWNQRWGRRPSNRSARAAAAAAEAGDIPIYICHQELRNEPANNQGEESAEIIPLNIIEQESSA
T2 sequence (looked up) 2: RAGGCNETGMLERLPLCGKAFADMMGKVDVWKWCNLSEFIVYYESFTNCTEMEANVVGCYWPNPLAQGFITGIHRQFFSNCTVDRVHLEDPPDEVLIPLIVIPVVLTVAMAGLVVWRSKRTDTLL


Legend:
[1] = molecular target: T1, human calcitonin receptor on …; assay: cell-based or functional assay
[2] = molecular target: T2, human amylin 3(a) receptor (human …); assay: cell-based or functional assay

| hCTR funct. EC50 (pM), tested with HSA [1] | hAmylin-R funct. EC50 (pM), tested with HSA [2] | Binder |
| --- | --- | --- |
| 108 pM | 158 pM | {C20 diacid-γGlu}-ASGLSTAALGRLSQELHELQTYPRTETGSQTY-NH2 (SMILES CC(C)C[C@H](NC(=O)CNC(=O)[C@H](CO)NC(=O)[C@H](C)NC(=O)CC[C@H](NC(=O)CCCCCCCCCCCCCCCCCCC(=O)O)C(=O)O)C(=O)N[C@@H](CO)C(=O)N[C@H](C(=O)N[C@@H](C)C(=O)N[C@@H](C)C(=O)N[C@@H](CC(C)C)C(=O)NCC(=O)N[C@@H](CCCNC(=N)N)C(=O)N[C@@H](CC(C)C)C(=O)N[C@@H](CO)C(=O)N[C@@H](CCC(N)=O)C(=O)N[C@@H](CCC(=O)O)C(=O)N[C@@H](CC(C)C)C(=O)N[C@@H](Cc1c[nH]cn1)C(=O)N[C@@H](CCC(=O)O)C(=O)N[C@@H](CC(C)C)C(=O)N[C@@H](CCC(N)=O)C(=O)N[C@H](C(=O)N[C@@H](Cc1ccc(O)cc1)C(=O)N1CCC[C@H]1C(=O)N[C@@H](CCCNC(=N)N)C(=O)N[C@H](C(=O)N[C@@H](CCC(=O)O)C(=O)N[C@H](C(=O)NCC(=O)N[C@@H](CO)C(=O)N[C@@H](CCC(N)=O)C(=O)N[C@H](C(=O)N[C@@H](Cc1ccc(O)cc1)C(N)=O)[C@@H](C)O)[C@@H](C)O)[C@@H](C)O)[C@@H](C)O)[C@@H](C)O) [[N-terminal(C20 diacid-gGlu), des1, 4G, 15Q, 21Q, 23Y, 30S, 31Q, 32T, 33Y]mimylin] |
| 57 pM | 159 pM | {C20 diacid-γGlu}-ASGLSTAALGRLSEELHELQTYPRTETGSGTY-NH2 (SMILES CC(C)C[C@H](NC(=O)CNC(=O)[C@H](CO)NC(=O)[C@H](C)NC(=O)CC[C@H](NC(=O)CCCCCCCCCCCCCCCCCCC(=O)O)C(=O)O)C(=O)N[C@@H](CO)C(=O)N[C@H](C(=O)N[C@@H](C)C(=O)N[C@@H](C)C(=O)N[C@@H](CC(C)C)C(=O)NCC(=O)N[C@@H](CCCNC(=N)N)C(=O)N[C@@H](CC(C)C)C(=O)N[C@@H](CO)C(=O)N[C@@H](CCC(=O)O)C(=O)N[C@@H](CCC(=O)O)C(=O)N[C@@H](CC(C)C)C(=O)N[C@@H](Cc1c[nH]cn1)C(=O)N[C@@H](CCC(=O)O)C(=O)N[C@@H](CC(C)C)C(=O)N[C@@H](CCC(N)=O)C(=O)N[C@H](C(=O)N[C@@H](Cc1ccc(O)cc1)C(=O)N1CCC[C@H]1C(=O)N[C@@H](CCCNC(=N)N)C(=O)N[C@H](C(=O)N[C@@H](CCC(=O)O)C(=O)N[C@H](C(=O)NCC(=O)N[C@@H](CO)C(=O)NCC(=O)N[C@H](C(=O)N[C@@H](Cc1ccc(O)cc1)C(N)=O)[C@@H](C)O)[C@@H](C)O)[C@@H](C)O)[C@@H](C)O)[C@@H](C)O) [[N-terminal(C20 diacid-gGlu), des1, 4G, 15E, 21Q, 23Y, 30S, 31G, 32T, 33Y]mimylin] |
| 68 pM | 150 pM | {C20 diacid-γGlu}-ASGLSTAALGRLSQELHELETYPRTETGSGTY-NH2 (SMILES CC(C)C[C@H](NC(=O)CNC(=O)[C@H](CO)NC(=O)[C@H](C)NC(=O)CC[C@H](NC(=O)CCCCCCCCCCCCCCCCCCC(=O)O)C(=O)O)C(=O)N[C@@H](CO)C(=O)N[C@H](C(=O)N[C@@H](C)C(=O)N[C@@H](C)C(=O)N[C@@H](CC(C)C)C(=O)NCC(=O)N[C@@H](CCCNC(=N)N)C(=O)N[C@@H](CC(C)C)C(=O)N[C@@H](CO)C(=O)N[C@@H](CCC(N)=O)C(=O)N[C@@H](CCC(=O)O)C(=O)N[C@@H](CC(C)C)C(=O)N[C@@H](Cc1c[nH]cn1)C(=O)N[C@@H](CCC(=O)O)C(=O)N[C@@H](CC(C)C)C(=O)N[C@@H](CCC(=O)O)C(=O)N[C@H](C(=O)N[C@@H](Cc1ccc(O)cc1)C(=O)N1CCC[C@H]1C(=O)N[C@@H](CCCNC(=N)N)C(=O)N[C@H](C(=O)N[C@@H](CCC(=O)O)C(=O)N[C@H](C(=O)NCC(=O)N[C@@H](CO)C(=O)NCC(=O)N[C@H](C(=O)N[C@@H](Cc1ccc(O)cc1)C(N)=O)[C@@H](C)O)[C@@H](C)O)[C@@H](C)O)[C@@H](C)O)[C@@H](C)O) [[N-terminal(C20 diacid-gGlu), des1, 4G, 15Q, 21E, 23Y, 30S, 31G, 32T, 33Y]mimylin] |
| 67 pM | 291 pM | {C20 diacid-γGlu}-ASGLSTAALGRLSTELHELETYPRTETGSGTY-NH2 (SMILES CC(C)C[C@H](NC(=O)CNC(=O)[C@H](CO)NC(=O)[C@H](C)NC(=O)CC[C@H](NC(=O)CCCCCCCCCCCCCCCCCCC(=O)O)C(=O)O)C(=O)N[C@@H](CO)C(=O)N[C@H](C(=O)N[C@@H](C)C(=O)N[C@@H](C)C(=O)N[C@@H](CC(C)C)C(=O)NCC(=O)N[C@@H](CCCNC(=N)N)C(=O)N[C@@H](CC(C)C)C(=O)N[C@@H](CO)C(=O)N[C@H](C(=O)N[C@@H](CCC(=O)O)C(=O)N[C@@H](CC(C)C)C(=O)N[C@@H](Cc1c[nH]cn1)C(=O)N[C@@H](CCC(=O)O)C(=O)N[C@@H](CC(C)C)C(=O)N[C@@H](CCC(=O)O)C(=O)N[C@H](C(=O)N[C@@H](Cc1ccc(O)cc1)C(=O)N1CCC[C@H]1C(=O)N[C@@H](CCCNC(=N)N)C(=O)N[C@H](C(=O)N[C@@H](CCC(=O)O)C(=O)N[C@H](C(=O)NCC(=O)N[C@@H](CO)C(=O)NCC(=O)N[C@H](C(=O)N[C@@H](Cc1ccc(O)cc1)C(N)=O)[C@@H](C)O)[C@@H](C)O)[C@@H](C)O)[C@@H](C)O)[C@@H](C)O)[C@@H](C)O) [[N-terminal(C20 diacid-gGlu), des1, 4G, 15T, 21E, 23Y, 30S, 31G, 32T, 33Y]mimylin] |
| 49 pM | 52 pM | {C20 diacid}-ASGLSTAALGRLSQELHELQTYPRTETGSGTY-NH2 (SMILES CC(C)C[C@H](NC(=O)CNC(=O)[C@H](CO)NC(=O)[C@H](C)NC(=O)CCCCCCCCCCCCCCCCCCC(=O)O)C(=O)N[C@@H](CO)C(=O)N[C@H](C(=O)N[C@@H](C)C(=O)N[C@@H](C)C(=O)N[C@@H](CC(C)C)C(=O)NCC(=O)N[C@@H](CCCNC(=N)N)C(=O)N[C@@H](CC(C)C)C(=O)N[C@@H](CO)C(=O)N[C@@H](CCC(N)=O)C(=O)N[C@@H](CCC(=O)O)C(=O)N[C@@H](CC(C)C)C(=O)N[C@@H](Cc1c[nH]cn1)C(=O)N[C@@H](CCC(=O)O)C(=O)N[C@@H](CC(C)C)C(=O)N[C@@H](CCC(N)=O)C(=O)N[C@H](C(=O)N[C@@H](Cc1ccc(O)cc1)C(=O)N1CCC[C@H]1C(=O)N[C@@H](CCCNC(=N)N)C(=O)N[C@H](C(=O)N[C@@H](CCC(=O)O)C(=O)N[C@H](C(=O)NCC(=O)N[C@@H](CO)C(=O)NCC(=O)N[C@H](C(=O)N[C@@H](Cc1ccc(O)cc1)C(N)=O)[C@@H](C)O)[C@@H](C)O)[C@@H](C)O)[C@@H](C)O)[C@@H](C)O) [[N-terminal(C20 diacid), des1, 4G, 15Q, 21Q, 23Y, 30S, 31G, 32T, 33Y]mimylin] |
| 53 pM | 70 pM | {C18 diacid-γGlu}-ASGLSTAALGRLSQELHELQTYPRTETGSGTY-NH2 (SMILES CC(C)C[C@H](NC(=O)CNC(=O)[C@H](CO)NC(=O)[C@H](C)NC(=O)CC[C@H](NC(=O)CCCCCCCCCCCCCCCCC(=O)O)C(=O)O)C(=O)N[C@@H](CO)C(=O)N[C@H](C(=O)N[C@@H](C)C(=O)N[C@@H](C)C(=O)N[C@@H](CC(C)C)C(=O)NCC(=O)N[C@@H](CCCNC(=N)N)C(=O)N[C@@H](CC(C)C)C(=O)N[C@@H](CO)C(=O)N[C@@H](CCC(N)=O)C(=O)N[C@@H](CCC(=O)O)C(=O)N[C@@H](CC(C)C)C(=O)N[C@@H](Cc1c[nH]cn1)C(=O)N[C@@H](CCC(=O)O)C(=O)N[C@@H](CC(C)C)C(=O)N[C@@H](CCC(N)=O)C(=O)N[C@H](C(=O)N[C@@H](Cc1ccc(O)cc1)C(=O)N1CCC[C@H]1C(=O)N[C@@H](CCCNC(=N)N)C(=O)N[C@H](C(=O)N[C@@H](CCC(=O)O)C(=O)N[C@H](C(=O)NCC(=O)N[C@@H](CO)C(=O)NCC(=O)N[C@H](C(=O)N[C@@H](Cc1ccc(O)cc1)C(N)=O)[C@@H](C)O)[C@@H](C)O)[C@@H](C)O)[C@@H](C)O)[C@@H](C)O) [[N-terminal(C18 diacid-gGlu), des1, 4G, 15Q, 21Q, 23Y, 30S, 31G, 32T, 33Y]mimylin] |
